The test has as its target VHL, P40337-3.

The text below walks through data of IntAct's records for PubMed 17986458.

In the case of “Diacylglycerol kinase iota (Homo sapiens), O75912 P147A;P895A”, the “effect of a mutation on the interaction” value is “disrupting interaction”. As for “Diacylglycerol kinase iota (Homo sapiens), O75912 P895A”, the entry is “disrupting interaction”.
